For one data set, the system named is histone H1 in HeLa cells. The data set is described as follows: Digestion of histone H1 in HeLa cells, immunoblot. It counts as cell-based. The following applies: HeLa cells incubated overnight at 37° C.; anti-histone H1 immunoblot. Here is the method:
To study whether the digestion of histones by the chromoprotein occurs in intact cells, HeLa cells were incubated with compounds overnight at 37° C. Cell lysates were analysed by SDS-PAGE and protein immunoblotting using anti-histone H1 antibodies (Santa Cruz Biotechnologies). […] This activity can contribute to antitumor effects by digesting histones in chromatin, making the DNA more accessible for cleavage. This appears to be a unique activity of the chromoprotein enediynes.

The target in a further data set is T1, Human PGP (MDR1) (Homo sapiens, UniProt P08183).
T1 construct: cells expressing clinically relevant levels of MDR1 (KB-8-5 cells) remain sensitive to the complex; endogenous in cells; host or cells: KB (P-GP -), KB-8-5 (+), KB-V-1 (+++)
T1 sequence (P08183 whole entry): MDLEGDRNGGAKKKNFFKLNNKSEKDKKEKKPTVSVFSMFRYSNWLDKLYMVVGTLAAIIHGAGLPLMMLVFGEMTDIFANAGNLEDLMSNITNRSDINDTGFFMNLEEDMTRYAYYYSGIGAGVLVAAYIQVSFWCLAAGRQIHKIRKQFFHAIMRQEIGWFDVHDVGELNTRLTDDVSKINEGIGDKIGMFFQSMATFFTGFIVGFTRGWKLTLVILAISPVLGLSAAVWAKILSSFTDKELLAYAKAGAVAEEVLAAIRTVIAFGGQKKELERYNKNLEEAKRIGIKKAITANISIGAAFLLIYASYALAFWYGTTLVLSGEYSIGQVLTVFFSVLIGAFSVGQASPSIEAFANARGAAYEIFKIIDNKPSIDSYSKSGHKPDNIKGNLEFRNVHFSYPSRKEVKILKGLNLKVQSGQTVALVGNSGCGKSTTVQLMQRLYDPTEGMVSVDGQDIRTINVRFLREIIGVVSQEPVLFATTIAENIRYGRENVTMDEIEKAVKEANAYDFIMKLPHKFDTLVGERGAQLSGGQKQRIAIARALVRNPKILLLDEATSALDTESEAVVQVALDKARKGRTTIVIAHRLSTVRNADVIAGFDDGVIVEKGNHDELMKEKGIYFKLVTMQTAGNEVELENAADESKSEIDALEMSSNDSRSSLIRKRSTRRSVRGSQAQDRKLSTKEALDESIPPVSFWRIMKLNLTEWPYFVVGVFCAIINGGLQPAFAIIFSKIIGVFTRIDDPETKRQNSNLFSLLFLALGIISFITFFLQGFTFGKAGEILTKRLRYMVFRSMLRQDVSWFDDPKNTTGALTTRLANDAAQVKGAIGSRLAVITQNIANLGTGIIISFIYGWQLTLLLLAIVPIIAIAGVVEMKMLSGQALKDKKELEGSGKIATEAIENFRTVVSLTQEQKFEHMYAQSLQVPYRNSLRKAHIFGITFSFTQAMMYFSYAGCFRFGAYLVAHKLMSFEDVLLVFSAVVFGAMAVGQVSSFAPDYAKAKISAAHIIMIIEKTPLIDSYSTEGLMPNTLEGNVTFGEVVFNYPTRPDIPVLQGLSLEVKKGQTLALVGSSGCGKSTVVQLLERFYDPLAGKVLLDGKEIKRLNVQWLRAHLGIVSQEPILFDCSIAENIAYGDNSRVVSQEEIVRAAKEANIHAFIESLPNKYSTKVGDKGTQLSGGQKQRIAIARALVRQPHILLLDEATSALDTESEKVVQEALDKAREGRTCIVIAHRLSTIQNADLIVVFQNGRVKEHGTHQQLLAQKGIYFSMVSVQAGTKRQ
Put plainly: Transport by P-GP (MDR-1). It counts as cell-based. The following applies: result in words. The source says:
Human PGP (MDR1) is an ATP-dependent efflux pump which is capable of transporting many drugs across cell membranes. High level expression of this protein has been linked to multiple drug resistance of tumors. […] The protein component of the chromoprotein probably protects the chromophore from drug efflux mediated by MDR1, and may be responsible for the beneficial antitumor effects in colon cell lines which often express MDR1.

For the next data set, the system named is Histone H1. The data set is described as follows: Digestion of histone H1, SDS-PAGE. It counts as biochemical. The following applies: 50 mM Tris-Cl, pH 7.5 overnight at 37° C. As to the method: Histone H1 was incubated with various concentrations of the chromoprotein in 50 mM Tris-Cl, pH 7.5 overnight at 37° C. (FIG. 29) Digestions of histone were assessed by SDS-polyacrylamide gel electrophoresis (SDS-PAGE), followed by staining of the gel with GelCode Blue (Pierce Biotechnology, Inc, Rockford, Ill.).

Data set [1] deals with human tumor cell line panel. The data set is described as follows: Human tumor cell line panel (whole panel). In kind it is cell-based. The following applies: result in words.
For data set [2], the system named is HCT116 colon carcinoma cells. The data set is described as follows: Uptake of FITC-tagged chromoprotein and apoprotein, fluorescent microscopy / flow cytometry. In kind it is cell-based. As to the method:
To determine the mechanism by which the chromoprotein enters cells and exerts its biological activity, the chromoprotein was labeled with a fluorescent tag (FITC) using EZ-Label fluorescent labeling kit (Pierce Biotechnology), according to the manufacturer's recommendation. […] Uptake of labeled material by HCT116 colon carcinoma cells was studied by fluorescent microscopy. Optimum incubation time with cells was 3-6 hours. […] Even though nuclear accumulation is low, the amount is most likely sufficient for biological activity given the potency of the complex.
To determine whether an intact complex of chromophore and apoprotein is required for cellular and nuclear entry, the chromoprotein and apoprotein were labeled with FITC. Uptake of labeled material was studied by fluorescent microscopy. Uptake was similar for both apoprotein and chromoprotein.
To determine whether the entry of chromoprotein into cells is mediated by a saturable (e.g. cell surface receptor-dependent) process, HCT116 cells were incubated with FITC-labeled chromoprotein (FIG. 37, right panel) or apoprotein (FIG. 37, left panel) in the absence or presence of 10-fold excess of unlabeled reagent (unlabelled chromoprotein or apoprotein, respectively). Cells were analysed by fluorescent microscopy (left) or flow cytometry (right). […] Furthermore, a single homogeneous peak observed in flow cytometry histograms indicated uniform uptake of labeled reagent by all cells. Numbers in the histograms are mean channel numbers (FITC fluorescence).
Other means by which a protein complex can enter cells is pinocytosis, where caveolae in the surface of the cell pinch off to form pinosomes that are free within the cytoplasm of the cell. Since pinocytosis is an energy-dependent process that requires a functional tubulin cytoskeletal network, we examined the effect of sodium azide, an energy uncoupling agent and nocodazole, an agent which disrupts the tubulin cytoskeleton on cellular uptake. HCT116 cells were treated with FITC-labeled apoprotein in the absence or presence of sodium azideor nocodazole. […] Since the data appears to rule out a receptor-mediated process, pinocytosis is most likely involved.

The values below come from patent publication US20100028952A1, “FERMENTATION AND PURIFICATION OF ACTINOMADURA CHROMOPROTEIN AND RELATED SPECIES” (WYETH, priority 2006, published 2010).

With bleomycin, the “histone H1 in cells” value with histone H1 in HeLa cells was “No effect”.

As for calicheamicin [reference compound], the MDR1 substrate result at Human PGP (MDR1) was “good substrate for MDR1”. Moreover, the “digestion of histone H1” value in the data set with Histone H1 was “did not cleave histone H1”. Further, the “histone H1 in cells” value in the data set with histone H1 in HeLa cells is on record as “No effect”.

B1: apoprotein: 21G792 apoprotein (SEQ ID NO:150), protein component of the chromoprotein without chromophore (protein)
chain: DTVTVNYDCVGYPSDIAVTIDAPATAGVGDTATFEVSSVVTTGAPQDLPAGEVVTDMAIVVGGAQSGTITASGLTNEATPAGQPVNMVGGEAQITFTSAGSVTFTPSTTTQVDNGAQCTVVGEAPVGATTVVS
modifications: Actinomadura sp. 21G792
In the case of B1, the “in vitro anti-tumor activity” value in data set [1] is “inactive”. The “competition of label by unlabeled reagent” value in data set [2] (10-fold excess of unlabeled reagent) is “No competition of label was observed”. In addition, in data set [2] (FITC labeled), the “uptake of labeled material, apoprotein versus chromoprotein” value is given as “similar”. Further, the “effect of sodium azide or nocodazole on uptake of label” value in data set [2] (FITC-labeled, nocodazole 100 nM) is recorded as “Both treatments inhibited uptake of label”. The “digestion of histone H1” value in the data set on Histone H1 is recorded as “no activity”.
